Reference: the supplement of paper PMC7877785
± gives the uncertainty stated by the source.

Test: self-splicing fitness, log relative to wild type (ln ratio); higher = more splicing; Tetrahymena group I intron in knt gene, E. coli kanamycin selection, DiMSum; sequences stand for … in CUCUCU…GGAGGGAAAAGUUAUCAGGCAUGCACCUGGUAGCUAGUCUUUAAACCAAUAGAUUGCAUCGGUUUAAAAGGCAAGACCGUCAAAUUGCGGGAAAGGGGUCAACAGCCGUUCAGUACCAAGUCUCAGGGGAAACUUUGAGAUGGCCUUGCAAAGGGUAUGGUAAUAAGCUGACGGACAUGGUCCUAACCACGCAGCCAAGUCCUAAGUCAACAGAUCUUCUGUUGAUAUGGAUGCAGUUCACAGACUAAAUGUCGGUCGGGGAAGAUGUAUUCUUCUCAUAAGAUAUAGUCGGACCUCUCCUUAAUGGGAGCUAGCGGAUGAAGUGAUGCAACACUGGAGCCGCUGGGAACUAAUUUGUAUGCGAAAGUAUAUUGAUUAGUUUUGGAGUACUCGUGGUCG
Procedure, shortened: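 Library with all eight P1ex-region intron nucleotides randomised, intron inside the knt kanamycin-resistance gene on pET-22b(+), in E. coli BL21(DE3). Cells grew overnight at 37°C or 30°C on LB agar with or without 25 μg/mL kanamycin (plus 100 μg/mL carbenicillin, 50 μM IPTG, 0.2% rhamnose), in six replicate transformations. Pooled colonies were amplicon-sequenced on Illumina HiSeq 2500. DiMSum fitness is the error-weighted combination of wild-type-normalised replicate fold changes, kanamycin versus none.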

Row | Sequence | self-splicing fitness (ln) (30 °C) | self-splicing fitness (ln) (37 °C)
1 | AUAGAGCAAUAUUACGGCCC | -1.68 ± 0.17 | -0.799 ± 0.3
2 | AUAGAGCAAUAUUACGGGGC | -3.43 ± 0.43 | -2.51 ± 0.41
3 | AUAGAGCAAUAUUACGGUAA | -1.76 ± 0.15 | -1.42 ± 0.17
4 | AUAGAGCAAUAUUACGGUCA | -1.48 ± 0.14 | -0.634 ± 0.21
5 | AUAGAGCAAUAUUACGUACC | -3.3 ± 0.16 | -1.3 ± 0.15
6 | AUAGAGCAAUAUUACGUCAG | -3.64 ± 0.28 | -2.66 ± 0.23
7 | AUAGAGCAAUAUUACGUCCA | -2.35 ± 0.21 | -0.672 ± 0.2
8 | AUAGAGCAAUAUUACGUCGG | -3.26 ± 0.14 | -2.27 ± 0.17
9 | AUAUAGCAAUAUUACGAAAU | -1.01 ± 0.21 | -1.72 ± 0.28
10 | AUAUAGCAAUAUUACGAACA | -0.789 ± 0.2 | -0.183 ± 0.21
11 | AUAUAGCAAUAUUACGAAUU | -2.52 ± 0.16 | -0.909 ± 0.14
12 | AUAUAGCAAUAUUACGACCC | -1.24 ± 0.28 | –
13 | AUAUAGCAAUAUUACGACUU | 0.217 ± 0.073 | -0.272 ± 0.075
14 | AUAUAGCAAUAUUACGAUAC | -1.66 ± 0.35 | -0.756 ± 0.26
15 | AUAUAGCAAUAUUACGAUGA | -0.834 ± 0.16 | -0.885 ± 0.17
16 | AUAUAGCAAUAUUACGCAUU | -3.04 ± 0.18 | -1.42 ± 0.15
17 | AUAUAGCAAUAUUACGCCAU | -1.32 ± 0.18 | -1.38 ± 0.21
18 | AUAUAGCAAUAUUACGCCGA | -2.85 ± 0.48 | -1.13 ± 0.35
19 | AUAUAGCAAUAUUACGGACC | -0.93 ± 0.22 | -0.283 ± 0.24
20 | AUAUAGCAAUAUUACGGCAC | -2 ± 0.24 | 0.951 ± 0.25
21 | AUAUAGCAAUAUUACGGCCA | -1.28 ± 0.22 | -0.185 ± 0.26
22 | AUAUAGCAAUAUUACGGCGG | -1.04 ± 0.17 | -0.534 ± 0.26
23 | AUAUAGCAAUAUUACGGUAG | -3.13 ± 0.18 | -1.74 ± 0.21
24 | AUAUAGCAAUAUUACGUAGC | -4.04 ± 0.39 | -2.54 ± 0.33
25 | AUAUAGCAAUAUUACGUCCA | -1.87 ± 0.34 | -0.0483 ± 0.29

Row | Sequence | self-splicing fitness (ln) (30 °C) | self-splicing fitness (ln) (37 °C)
26 | AUAUAGCAAUAUUACGUCGU | -1.12 ± 0.12 | -0.541 ± 0.18
27 | AUAUAGCAAUAUUACGUGAU | -1.4 ± 0.092 | -0.895 ± 0.14
28 | AUAUAGCAAUAUUACGUGCG | -0.942 ± 0.094 | -0.942 ± 0.13
29 | AUCAAGCAAUAUUACGAACC | -1.05 ± 0.18 | -0.734 ± 0.25
30 | AUCAAGCAAUAUUACGACGC | -0.837 ± 0.099 | -0.402 ± 0.12
31 | AUCAAGCAAUAUUACGACUA | -0.634 ± 0.076 | 0.132 ± 0.088
32 | AUCAAGCAAUAUUACGAGUG | -2.19 ± 0.1 | -1.28 ± 0.14
33 | AUCAAGCAAUAUUACGCAAG | -1.99 ± 0.15 | -0.935 ± 0.15
34 | AUCAAGCAAUAUUACGCCGA | -1.02 ± 0.14 | -0.375 ± 0.17
35 | AUCAAGCAAUAUUACGCGAG | -1.3 ± 0.081 | -0.224 ± 0.086
36 | AUCAAGCAAUAUUACGCUGG | -2.36 ± 0.096 | -0.84 ± 0.12
37 | AUCAAGCAAUAUUACGGGCA | -1.42 ± 0.098 | -0.95 ± 0.098
38 | AUCAAGCAAUAUUACGGUAC | -3.8 ± 0.23 | -0.246 ± 0.12
39 | AUCAAGCAAUAUUACGGUCC | -1.55 ± 0.13 | -1.75 ± 0.17
40 | AUCAAGCAAUAUUACGGUGU | -1.7 ± 0.076 | -1.11 ± 0.088
41 | AUCAAGCAAUAUUACGUAAA | -2.59 ± 0.13 | -1.11 ± 0.12
42 | AUCAAGCAAUAUUACGUCCA | -1.23 ± 0.09 | -0.319 ± 0.11
43 | AUCAAGCAAUAUUACGUCGG | -3.01 ± 0.13 | -1.29 ± 0.12
44 | AUCAAGCAAUAUUACGUGAU | -3.81 ± 0.2 | -2.23 ± 0.17
45 | AUCAAGCAAUAUUACGUGGG | -3.29 ± 0.14 | -2.04 ± 0.11
46 | AUCAAGCAAUAUUACGUGUG | -1.57 ± 0.069 | -1.32 ± 0.071
47 | AUCAAGCAAUAUUACGUUAA | -3.14 ± 0.11 | -1.87 ± 0.093
48 | AUCAAGCAAUAUUACGUUAC | -5.49 ± 0.45 | -2.82 ± 0.27
49 | AUCAAGCAAUAUUACGUUCA | -1.91 ± 0.11 | -0.446 ± 0.13
50 | AUCAAGCAAUAUUACGUUUC | – | -1.52 ± 0.34

Row | Sequence | self-splicing fitness (ln) (30 °C) | self-splicing fitness (ln) (37 °C)
51 | AUCCAGCAAUAUUACGAAAA | -1.79 ± 0.12 | -1.02 ± 0.12
52 | AUCCAGCAAUAUUACGAGUU | -1.33 ± 0.063 | -0.782 ± 0.077
53 | AUCCAGCAAUAUUACGAUGU | -0.743 ± 0.066 | 0.613 ± 0.093
54 | AUCCAGCAAUAUUACGCAAC | -2.21 ± 0.13 | -0.741 ± 0.12
55 | AUCCAGCAAUAUUACGCACG | -1.68 ± 0.12 | -0.334 ± 0.13
56 | AUCCAGCAAUAUUACGCCGU | -0.864 ± 0.096 | -0.133 ± 0.12
57 | AUCCAGCAAUAUUACGCCUU | -0.818 ± 0.067 | -0.214 ± 0.082
58 | AUCCAGCAAUAUUACGCGAU | -1.86 ± 0.15 | -2.42 ± 0.25
59 | AUCCAGCAAUAUUACGCUAU | -1.51 ± 0.09 | -1.26 ± 0.1
60 | AUCCAGCAAUAUUACGGCCC | -0.946 ± 0.2 | 0.127 ± 0.21
61 | AUCCAGCAAUAUUACGGCUG | -3.69 ± 0.39 | -2.43 ± 0.27
62 | AUCCAGCAAUAUUACGGGUC | -3.06 ± 0.12 | -1.62 ± 0.13
63 | AUCCAGCAAUAUUACGGUGA | -1.55 ± 0.096 | -1.17 ± 0.11
64 | AUCCAGCAAUAUUACGGUUG | -2.95 ± 0.1 | -1.03 ± 0.087
65 | AUCCAGCAAUAUUACGUAAU | -0.922 ± 0.072 | -0.492 ± 0.079
66 | AUCCAGCAAUAUUACGUAUC | -3.8 ± 0.27 | -2.26 ± 0.2
67 | AUCCAGCAAUAUUACGUCAC | -2.35 ± 0.19 | -2.44 ± 0.22
68 | AUCCAGCAAUAUUACGUCCU | -1.47 ± 0.11 | -0.253 ± 0.14
69 | AUCCAGCAAUAUUACGUCUC | -1.84 ± 0.12 | -0.869 ± 0.11
70 | AUCCAGCAAUAUUACGUGUA | -1.71 ± 0.06 | -0.487 ± 0.059
71 | AUCCAGCAAUAUUACGUUCG | -2.47 ± 0.1 | -0.92 ± 0.12
72 | AUCGAGCAAUAUUACGACCG | – | -1.63 ± 0.36
73 | AUCGAGCAAUAUUACGAGCA | -1.2 ± 0.12 | -0.963 ± 0.14
74 | AUCGAGCAAUAUUACGAUAA | -2.7 ± 0.26 | -1.74 ± 0.21
75 | AUCGAGCAAUAUUACGAUAU | -2.14 ± 0.17 | -0.583 ± 0.14

Row | Sequence | self-splicing fitness (ln) (30 °C) | self-splicing fitness (ln) (37 °C)
76 | AUCGAGCAAUAUUACGAUUA | -2.47 ± 0.23 | 0.0165 ± 0.12
77 | AUCGAGCAAUAUUACGCAAU | -2.08 ± 0.21 | -2.75 ± 0.4
78 | AUCGAGCAAUAUUACGCAUC | -2.77 ± 0.48 | –
79 | AUCGAGCAAUAUUACGCAUU | -1.6 ± 0.24 | -3.11 ± 0.3
80 | AUCGAGCAAUAUUACGCGCA | -1.59 ± 0.17 | -0.0318 ± 0.17
81 | AUCGAGCAAUAUUACGCGUA | -1.93 ± 0.17 | -1.01 ± 0.14
82 | AUCGAGCAAUAUUACGCUCA | -1.09 ± 0.26 | -0.721 ± 0.4
83 | AUCGAGCAAUAUUACGCUUU | -2.98 ± 0.15 | -2.29 ± 0.18
84 | AUCGAGCAAUAUUACGGAUA | -3.67 ± 0.33 | -1.92 ± 0.25
85 | AUCGAGCAAUAUUACGGCAG | – | -2.63 ± 0.46
86 | AUCGAGCAAUAUUACGGCAU | -0.455 ± 0.098 | -0.101 ± 0.1
87 | AUCGAGCAAUAUUACGGCUC | -1.39 ± 0.36 | -1.56 ± 0.49
88 | AUCGAGCAAUAUUACGGGCG | -2.97 ± 0.16 | -2.37 ± 0.19
89 | AUCGAGCAAUAUUACGGGCU | -4.05 ± 0.23 | -2.94 ± 0.26
90 | AUCGAGCAAUAUUACGGGGU | -3.4 ± 0.21 | -2.52 ± 0.19
91 | AUCGAGCAAUAUUACGUCGG | -2 ± 0.13 | -1.42 ± 0.16
92 | AUCGAGCAAUAUUACGUCGU | -2.19 ± 0.13 | -1.2 ± 0.14
93 | AUCGAGCAAUAUUACGUGCU | -2.72 ± 0.2 | -2 ± 0.27
94 | AUCGAGCAAUAUUACGUGUG | -3.04 ± 0.13 | -2.92 ± 0.18
95 | AUCGAGCAAUAUUACGUUUC | – | -2.81 ± 0.31
96 | AUCUAGCAAUAUUACGAAAA | – | -2.38 ± 0.33
97 | AUCUAGCAAUAUUACGAAAC | – | -1.96 ± 0.49
